Results as given in PMC10776854.

B1: MARCH6-FLAG WT [human] / SQLE [human (endogenous in K562)] (parent)
chain 1: MDTAEEDICRVCRSEGTPEKPLYHPCVCTGSIKFIHQECLVQWLKHSRKEYCELCKHRFAFTPIYSPDMPSRLPIQDIFAGLVTSIGTAIRYWFHYTLVAFAWLGVVPLTACRIYKCLFTGSVSSLLTLPLDMLSTENLLADCLQGCFVVTCTLCAFISLVWLREQIVHGGAPIWLEHAAPPFNAAGHHQNEAPAGGNGAENVAADQPANPPAENAVVGENPDAQDDQAEEEEEDNEEEDDAGVEDAADANNGAQDDMNWNALEWDRAAEELTWERMLGLDGSLVFLEHVFWVVSLNTLFILVFAFCPYHIGHFSLVGLGFEEHVQASHFEGLITTIVGYILLAITLIICHGLATLVKFHRSRRLLGVCYIVVKVSLLVVVEIGVFPLICGWWLDICSLEMFDATLKDRELSFQSAPGTTMFLHWLVGMVYVFYFASFILLLREVLRPGVLWFLRNLNDPDFNPVQEMIHLPIYRHLRRFILSVIVFGSIVLLMLWLPIRIIKSVLPNFLPYNVMLYSDAPVSELSLELLLLQVVLPALLEQGHTRQWLKGLVRAWTVTAGYLLDLHSYLLGDQEENENSANQQVNNNQHARNNNAIPVVGEGLHAAHQAILQQGGPVGFQPYRRPLNFPLRIFLLIVFMCITLLIASLICLTLPVFAGRWLMSFWTGTAKIHELYTAACGLYVCWLTIRAVTVMVAWMPQGRRVIFQKVKEWSLMIMKTLIVAVLLAGVVPLLLGLLFELVIVAPLRVPLDQTPLFYPWQDWALGVLHAKIIAAITLMGPQWWLKTVIEQVYANGIRNIDLHYIVRKLAAPVISVLLLSLCVPYVIASGVVPLLGVTAEMQNLVHRRIYPFLLMVVVLMAILSFQVRQFKRLYEHIKNDKYLVGQRLVNYERKSGKQGSSPPPPQSSQE
chain 2: MWTFLGIATFTYFYKKFGDFITLANREVLLCVLVFLSLGLVLSYRCRHRNGGLLGRQQSGSQFALFSDILSGLPFIGFFWAKSPPESENKEQLEARRRRKGTNISETSLIGTAACTSTSSQNDPEVIIVGAGVLGSALAAVLSRDGRKVTVIERDLKEPDRIVGEFLQPGGYHVLKDLGLGDTVEGLDAQVVNGYMIHDQESKSEVQIPYPLSENNQVQSGRAFHHGRFIMSLRKAAMAEPNAKFIEGVVLQLLEEDDVVMGVQYKDKETGDIKELHAPLTVVADGLFSKFRKSLVSNKVSVSSHFVGFLMKNAPQFKANHAELILANPSPVLIYQISSSETRVLVDIRGEMPRNLREYMVEKIYPQIPDHLKEPFLEATDNSHLRSMPASFLPPSSVKKRGVLLLGDAYNMRHPLTGGGMTVAFKDIKLWRKLLKGIPDLYDDAAIFEAKKSFYWARKTSHSFVVNILAQALYELFSATDDSLHQLRKACFLYFKLGGECVAGPVGLLSVLSPNPLVLIGHFFAVAIYAVYFCFKSEPWITKPRALLSSGAVLYKACSVIFPLIYSEMKYMVH

Variants of: B1
Assay: FLAG-immunoprecipitation, Western blot densitometry
Conditions: with SQLE [human (endogenous in K562)], K562 cells expressing MARCH6-FLAG, eight independent biological replicates, parent: 0.55, read off a plot

Row | Variant | response (SQLE/MARCH6 ratio)
1 | chain 1 Y92V | 0.89
2 | chain 1 L140A L747A | 0.5

Further lines, results first:

Row | response (SQLE/MARCH6 ratio) | Variant
3 | 0.24 | chain 1 Y96V
4 | 0.27 | chain 1 Y92V Y96V
